Where no end group is shown, it is not given here. [ ]: non-standard residue; d: D form. Nle = CCCC[C@H](N)C(=O)O
Key:
[1] = test system: CLP-induced sepsis in BALB/c mice; assay: Septic survival after cecal ligation and puncture (CLP); assay type: in vivo, mouse; conditions: P2 5.0 mg/kg twice at 2 h and 24 h post-CLP, i.p.
Procedure: Experimental sepsis was induced in BALB/c mice via CLP as previously described. […] The animals were randomly assigned to the control vehicle (n = 10 or n = 20) or experimental groups (n = 10 or n = 20). P2 (5.0 mg/kg), P2-1 (0.1 mg/kg or 1.0 mg/kg), or tetranectin N-terminal deletion mutant (ΔTN) (1.0 mg/kg) were administered intraperitoneally (i.p.) at the indicated time points, and survival rates were monitored. To elucidate P2-1’s protective mechanisms, a separate group of BALB/c mice (n = 4) underwent CLP and received P2-1 (1.0 mg/kg) at 2 h and 20 h post-CLP. At 24 h post-CLP, the animals were euthanized, blood was collected, and serum cytokines and chemokines were measured via murine cytokine antibody arrays as previously described. More details are presented in Additional file 1: Methods.
For these preclinical studies, animals were random ly assigned to experimental groups and treated with P2, P2-1, or a pCTS-L-neutralizing mAb2 according to the indicated dosing regimens. Outcomes, including septic survival rates, arthritis severity, pain sensitivity, and joint tissue histology scores, were collected under blinded experiment al conditions. The study d esign and sample si zes fo r each exp eriment are d etailed in the figure legends. No data, including outlier values, were excluded. For skewed data, outliers were defined via the interquartile range (IQR) method as any value below Q 1 –(1.5 × IQR) or above Q 3 + (1.5 × IQR). For normally distributed data, outliers were defined via the Z-score method as any value with an absolute Z-score greater than 2 or 3. The primary data are reported in Additional file 4. All the reagent sources are listed in Additional file 1: Table S1 .
Cecal ligation and puncture (CLP) sepsis model […]
screening. c Expression and purification of recombinant full-length human TN (residues 1 – 181) and its N-terminal deletion mutant ( ΔTN, residues 45 – 181). […] Recombinant Δ TN was given intraperitoneally at 24 h and 48 h post-C L P, and animal survival rates were monitored. *P < 0.0 5. […]

Water solubility = assay type: physicochemical; conditions: qualitative, text in Fig. 1d
[2] = test system: CLP-induced sepsis in BALB/c mice; conditions: text in Fig. 1b; mAb8 22% to 77%, mAb9 80% to 50%; ref [21]; cited from earlier work
[3] = test system: synthetic TN peptides (P1 – P10); assay: Epitope mapping of mAb8 and mAb9 by dot blotting against TN peptides P1 – P10; assay type: binding, human; conditions: 10 synthesized TN peptides, mAb 1.0 µg/ml, chemiluminescence
Procedure: remove unbound protein and then fixed with 4% paraformaldehyde for 20 min at room temperature.
Coverslips were mounted onto slides via Vectashield Mounting Medium for fluorescen ce with DAPI (Cat.
#H-1200, Vector Laborat ories, Inc., Newark, CA, USA) for nuclear counterstaining. Endocytic uptake of Alexa Fluor 555- labeled HMGB1 (red) was visualized via the Olympus IX51 inverted fluorescence & phase contrast tissue culture microscope. Cellular HMGB1 uptake was quantified by measuring the mean fluorescen ce intensity of the Alex a- 555- labeled HMGB1 protein within multiple representative cells via ImageJ an alysis software.
Antibody sequencing and antigen contact structure (ACS) prediction
Total RNA was extracted from mAb8 and mAb9 hybridoma cells via TRIzol (Invitrogen, Austin, TX, USA), and cDNA was synthesized via reverse transcriptase. […]
Corresponding to the C-terminal portion of the TN protein (Additional file 1: Fig. S4a) , a library of 10 synthetic peptides (P1 – P10, Additional file 1: Fig. S4b ) was spotted (0.1 μ g in 2.5 μ l) onto nitrocellulose membranes (Cat No. 88013, Thermo Scientific, Waltham, MA, USA ). […] After washing, the membranes were incubated with HRP-conjugated goat anti-mouse IgG (Jackson ImmunoResearch, West Grove, PA, USA), and signals were detected via chemiluminescence as previously described [ 1].

[4] = test system: Differentiated human macrophages; conditions: full-length TN; ref [21]; cited from earlier work
Description: To investigate P2-1’s effect on HMGB1 endocytosis, differentiated human macrophages were exposed to Alexa Fluor 555-labeled HMGB1 under various conditions (Fig. 5d).

human PBMCs [5] = conditions: TN; ref [21]; cited from earlier work
Description: To validate these RNA-seq findings, we quantified HMGB1-induced cytokine/chemokine protein levels using cytokine antibody arrays. Consistent with our RNA-seq data, HMGB1 stimulation led to a significant increase in the protein levels of various cytokines (e.g., TNF, IL-6, and IL-10) and chemokines (e.g., CXCL5/ENA-78, CXCL1/GRO-α, CXCL8/IL-8, CCL2/MCP-1, and CCL7/MCP-3) in human PBMCs (Fig. 6b), confirming its potent immunomodulating activities.

[6] = test system: Differentiated human macrophages; conditions: TN; ref [21]; cited from earlier work
Description: Crucially, our findings reveal a striking dichotomy in the biological effects of full-length TN and its derived peptide, P2-1, on HMGB1-mediated detrimental macrophage responses. […] We propose that full-length TN, when complexed with HMGB1, may engage unidentified macrophage surface receptor(s), thereby facilitating receptor-mediated endocytosis of TN/HMGB1 complexes and ...

[7] = biological target: T1, Recombinant human high mobility group box 1 (HMGB1) (human, UniProt P09429 1-215); assay: SPR; Nicoya OpenSPR; recombinant human HMGB1 immobilized on a carboxyl sensor chip, P2-1 flowed over at various concentrations in HBS-P buffer; 1:1 interaction model; three independent experiments; conditions: both partners purified
T1 construct: high mobility group box 1 (HMGB1); the SPR methods say recombinant human HMGB1; the SPR paragraph says human; The protein on the chip may be that rat construct
T1 sequence (looked up): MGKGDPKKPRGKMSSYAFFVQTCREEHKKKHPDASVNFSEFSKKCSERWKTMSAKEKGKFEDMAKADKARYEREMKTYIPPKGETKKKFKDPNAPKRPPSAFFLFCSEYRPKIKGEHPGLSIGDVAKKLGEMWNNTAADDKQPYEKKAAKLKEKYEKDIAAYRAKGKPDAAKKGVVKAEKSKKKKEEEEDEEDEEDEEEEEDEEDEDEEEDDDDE

human PBMCs [8] = assay: RNA-seq of HMGB1-stimulated PBMCs; assay type: cell-based
Procedure: Total RNA was isolated from human PBMCs (n = 6 biological replicates) stimulated with HMGB1 in the absence or presence of P2-1 (5.0 or 10.0 µg/ml) via the RNeasy Mini Kit (Qiagen, Germantown, MD, USA) according to the manufacturer’s instructions. cDNA libraries were prepared using the TruSeq RNA Library Prep Kit v2 (Illumina, San Diego, CA, USA) and sequenced on an Illumina NovaSeq 6000 platform to generate 100 bp paired-end reads. Gene counts were quantified via StringTie and DESeq2 for differential gene expression analysis. Volcano plots and heatmaps were generated via ggplot2 and pheatmap packages in R, respectively. Genes with an adjusted P-value < 0.05 and a |log2 fold change|> 1 were considered differentially expressed. […]
custom-synthesized (Gen Script, Piscataway, NJ, USA). P2 -1 was engineered to: i) increase solubility by removing a w ater-insoluble phenylalanine (F) at the C-terminal residue 70 and introducing a water-soluble threonine (T) at N-t erminal residue 54; and ii) reduce oxidative susceptibility by substituting methionine (M) with norleucine (Nle) and cysteine (C) with serine (S), respectively. The pCTS -L-neutralizing mAbs (mAb2) and TN-neutrali zing mAbs (mAb8 and m Ab9) were generated in BALB/c and C57BL/6 m ice as previously described .
RNA sequencing (RNA- Seq) and bioinformatics analysis
Total RNA was isolated from human PBMCs (n= 6 biological replicates) stimulated with HMGB1 in the absence o r pres ence o f P2-1 (5.0 or 10.0 µg/ml) via the RNeasy Mini Kit (Qiagen, Germantown, MD, USA) according to the manufacturer ’s instructions. RNA quantity and quality were assessed via a NanoDrop spectrophotometer, which requires A260/280 and A260/230 ratios to both be > 1.8. Samples meeting these criteria were then sent to two sequencing facilities, where RNA integrity was further confirmed via an Agilent Bioanalyzer. Only samples with an RNA integrity number of 8 or above were accepted for RNA sequencing. cDNA libraries were prepared using the TruSeq RNA Library Prep Kit v2 (Illumina, San Diego, CA, USA) and sequenced on an Illumina NovaSeq 6000 platform to generat e 100 bp paired-end reads. Our data filtering criteria adhered to industry best practices to ensure data quality.
First, raw sequencing reads underwent quality assessment with FastQC, followed by adapter and low-quality nucleotide trimming using Trimmomatic v.0.36. Subsequently, the high- quality reads wer e aligned to the Homo sapiens GRCh38 reference genome using the STAR aligner v.2.5.2b. Following alignment, PCR duplicates were identified and removed with Picard tools to mitigate amplification bias. Before differential expression an alysis, the gene count matrix was filtered to retain only genes with a count-per-million (CPM) > 1 in at least three samples (n = 3, representing our smallest experimental group). This rigorous procedure ensured that analysis was perfo rmed on a robust set of reliably expressed gen es. Finally, gene counts were quantified via StringTie and DESeq2 for differential gene expression analysis. Volcano

KVHMKCFLAFQTKTF [P2]
septic survival, in words [1]: significantly increased survival rates in both male and female mice
Water solubility (Water solubility): Poor water solubility

B1: mAb8: protective anti-tetranectin monoclonal antibody (antibody, V domains shown)
VH: DVNLVESGGGLVKLGGSLKLSCADSGFTFSSYYMSWVRQTPEKRLELVAAINSNGGRTYYPDTVKGRFTISRDNAKNTLYLQMSSLKSEDTALYYCARQGKNGLDYWGQGTSVTVSS
VL: DIQMTQTTSSLSASLGDRVTISCRASQDISNHLNWYQQKPDGTIKLLIYYTSRLHSGVPSRFSGSGSGTDFSLSISNLEQEDIATYFCQQGKTLPPTFGGGTKLEIK
survival in sepsis [2]: 77%
epitope peptide recognised (dot blot) [3]: targeted P5

B2: TN: full-length human tetranectin (protein, UniProt P05452 1-202, looked up)
chain: MELWGAYLLLCLFSLLTQVTTEPPTQKPKKIVNAKKDVVNTKMFEELKSRLDTLAQEVALLKEQQALQTVCLKGTKVHMKCFLAFTQTKTFHEASEDCISRGGTLGTPQTGSENDALYEYLRQSVGNEAEIWLGLNDMAAEGTWVDMTGARIAYKNWETEITAQPDGGKTENCAVLSGAANGKWFDKRCRDQLPYICQFGIV
modifications: full-length
notes: full-length human tetranectin
HMGB1 cellular uptake, in words [4]: significantly increased HMGB1 uptake
HMGB1-induced cytokines/chemokines, in words (human PBMCs [5]): did not affect HMGB1-induced cytokines (e.g., IL-6) or chemokines (e.g., MCP-1)
HMGB1 endocytosis and macrophage pyroptosis, in words [6]: enhances HMGB1 endocytosis and subsequent macrophage pyroptosis

TKVH[Nle]KSFLAFQTKT [P2-1 peptide, water-soluble derivative of the tetranectin P2 epitope peptide]
Kd [7]: 16.9 nM

B3: HMGB1: recombinant HMGB1 protein used as stimulus (protein)
chain: T1 sequence (looked up)
Log2 Fold change (human PBMCs [8]; CXCL5 (ENA-78), P-adjust 3.97E-166): 9.951
Log2 Fold change (human PBMCs [8]; CXCL8 (IL-8), P-adjust 1.17E-133): 5.985
Ctsl mRNA upregulation (human PBMCs [8]; HMGB1-only group, human PBMCs): 3.4 ± 0.3 -fold
Log2 Fold change (human PBMCs [8]; IL1B (IL-1β), P-adjust 1.29E-157): 8.223
Log2 Fold change (human PBMCs [8]; MT1G (Metallothionein-1G), P-adjust 9.98E-141): 9.377

— publication PMC12914960, “Repurposing a detrimental antibody epitope as targeted therapeutics for sepsis and rheumatoid arthritis” (Military Medical Research, 2026)
